Assay results: patent US9505841B2, “Use of an anti-Ang2 antibody” (Samsung Electronics Co., Ltd., priority 2013, dated 2016)

Tests used:
Akt, eNOS and 42/44 = experiment: Phosphorylation of Tie2 downstream signaling proteins in HUVEC (immunoblot); format: cell-based, human
Description: To see whether antibody 10D6 induces the activation of the downstream signaling of a Tie2 receptor as well as the activation of the Tie2 receptor itself, the phosphorylation degrees of proteins participating in the downstream signaling when Ang2 alone or Ang2 and antibody 10D6 was treated were tested using immune blotting.
Specifically, HUVEC (ATCC) cells (1×10^6) were cultured in a 6-well culture dish using EGM-2 (Lonza) media at 37° C. and when they reached 80˜90% confluency, the media were replaced with serum-free media (Lonza) and cultured at 37° C. for 6 to 16 hours. The dish was washed once with PBS, and the cultured cells were treated with a mixture prepared by mixing 60 nM of the Ang2 antibody (10D6) with 40 nM of Ang2 protein (R&D systems) and letting them stand for 20 min. and further cultured for 30 min. For comparison, groups in which Ang1 (R&D systems) 4 nM, Ang2 (R&D systems) 40 nM, and Ang2 (R&D systems) 40 nM+anti-Ang2 antibody (Regeneron) 60 nM were treated respectively were prepared.
The cells were washed using PBS, treated with a lysis buffer (Roche), collected to a tube to be dissolved at 4° C. for 30 min. and then, centrifuged at 13,000 rpm for 15 min. to measure a supernatant. A sample buffer (Invitrogen) mixed with a reducing agent was added to 25 ug of a cell lysate, which was boiled at 95° C. for 5 min., and then, applied to NuPAGE Novex 4-12% Bis-Tris gel (Invitrogen) and transferred onto Nitrocellulose membrane (Invitrogen).
To see the presence of the phosphorylation of Akt, eNOS and 42/44 involved in the downstream signaling, the blots were blocked with PBST mixed with 3% (v/v) skim milk (Sigma) for 30 min. and then treated with an anti pAkt antibody, anti p-eNOS antibody, and anti p-42/44 antibody (all of them; cell signaling). The blots were reacted in a stripping buffer (Thermo) for 15 min. and then blocked again to identify Akt, eNOS, and 42/44 using an anti Akt antibody, anti eNOS antibody, and anti 42/44 antibody (all of them; cell signaling).

E-selectin = experiment: LPS-induced mRNA expression of E-selectin in HUVEC (qPCR); format: cell-based, human; conditions: 100 ng/ml LPS 5 hours, 0.2 ug/ml Ang1 or 0.1 ug/ml Ang2 + 0.5 ug/ml antibody
Description: To see anti-inflammatory effects by antibody 10D6, HUVEC (ATCC) cells (4×10^5) were treated with Ang2 alone or Ang2 together with antibody 10D6, and a group in which Ang1 and Ang2 (R&D systems) and Regeneron Co. antibody (RG antibody) were co-treated was included as a control group. HUVEC cells were treated with 0.2 ug/ml of Ang1, 0.1 ug/ml of Ang2, or 0.1 ug/ml of Ang2 and 0.5 ug/ml of antibody, respectively and after 30-min. pre-incubation, they were treated with 100 ng/ml of LPS (Sigma) to induce inflammatory response and incubated for 5 hours.
The degree of the inflammatory response was identified by measuring the mRNA expression degree of an inflammatory adhesion substance (ICAM-1, E-selectin). The cells were washed using PBS, RNA was extracted using RNeasy Mini kit (Qiagen), and among them, 2 ug of RNA was synthesized into cDNA using Transcriptor First Strand cDNA synthesis kit (Roche). qPCR reaction was performed using RT2 SYBR™ Green Mastermix (Qiagen) and LightCycler™ 480 Real-Time PCR System (Roche). As an internal control for calibrating the amount of RNA in a sample, HPRT1 was used, and qPCR complied with the following procedures with regard to all the primers.
Step 1: 95° C., 10 min; Step 2 (45 cycles): Step 2-1: 95° C., 15 sec; Step 2-2: 60° C., 1 min; Step 3: 65° C., 15 sec; Step 4: 95° C., continuous (every 20° C.); Step 6: 40° C., 10 sec.

LLC tumor = experiment: Co-administration of anti-Ang2 antibody and cisplatin in LLC lung cancer animal model; format: in vivo, mouse; conditions: LLC mice; antibody 10 mg/kg i.p. every three days, five times; cisplatin 3 mg/kg i.p. once; control Fc of IgG1
Description: The synergistic effect of co-treatment of antibody 10D6 and cisplatin was examined.
In particular, referring to Example 14, LLC tumor cells were subcutaneously injected into mice. When the size of tumors reached 50˜100 mm^3, anti-Ang2 antibody 10D6 was injected at the concentration of 10 mg/kg via an intraperitoneal injection every three days a total of five times. After administering antibody 10D6 twice, 3 mg/kg of cisplatin (Sigma-Aldrich) was intraperitoneally injected once. The size of tumor (V) was calculated using the following formula: Volume (V)=(width)2×length/2
For comparison, the same experiment was performed to a control group treated with Fc of IgG1 and a comparative group treated with antibody 4H10.
In addition, an experiment was performed to examine whether the synergistic effect obtained by co-administration of 10D6 and cisplatin as described above is due to the increased transporting efficiency of the administered cisplatin induced by the vascular normalization by treatment of 10D6. Cisplatin binds to DNA in a living body and induces crosslinking, thereby inducing cell death. Rat monoclonal anti-Cisplatin modified DNA (CP9/19) antibody (1:200, Abcam), which is capable of binding to DNA modified by cisplatin in tumor frozen sections, and hamster anti-CD31 antibody (1:200, Millipore), were used for immunofluorescence staining, and fluorescence images were obtained using LSM5 confocal microscope (Zeiss). In addition, to examine necrotic region, the tumor frozen sections were stained with H&E according to standard protocol, and then, Eosin+ cell region in tumor was observed. The obtained results are illustrated in FIG. 18C.

B1: 10D6: mouse anti-Ang2 monoclonal antibody from hybridoma KCLRF-BP-00295; heavy chain variable region SEQ ID NO: 7, light chain variable region SEQ ID NO: 9 (antibody, V domains shown)
VH: DVQLQESGPGLVKPSQSLSLTCTVTGYSITSDYAWNWIRQFPGNKLEWMGYINYSGNTDYNPSLKSRSSITRDTSKNQFFLQLNSVTTGDTATYYCARGNFEGAMDYWGQGTSVTVSS
VL: SIVMTQTPKFLLVSAGDRVTITCKASQSVSNDVAWYQQKPGQSPKLLIYYASNRYPGVPDRFTGSGYGTDFTFTISTVQAEDLAVYFCQQDYSSPWTFGGGTKLEIK
modifications: Synthetic (Heavy chain variable region of an anti-Ang2 antibody); Synthetic (Light chain variable region of anti-Ang2 antibody)
downstream signaling (phosphorylation of Akt, eNOS, 42/44) compared to Ang2 sole-treatment and Ang2 + RG antibody (Akt, eNOS and 42/44; 60 nM 10D6 + 40 nM Ang2, or Ang1 4 nM alone, 30 min): strongly induced
downstream signaling effects relative to Ang1 sole-treatment group (Akt, eNOS and 42/44; 60 nM 10D6 + 40 nM Ang2 vs Ang1 4 nM): at least equal to those in the Ang1 sole-treatment group
expression of E-selectin induced by LPS (E-selectin): remarkably suppressed
tumor size decreased by, compared to the control (LLC tumor): 38.5%
